Assay: label from the status in PepcDB records

Row | Sequence | protein production
1 | MSYNLNLSHNIYKDAKLGTYYFRITYYDKSNTRKYITRKGFKQRKDAVKKCNEMMDELEGVGHLNRLPFDKLVEEYIDWYSARRKTSSVKALKTHTNNHLLPYFKSMDVFKMTTQDVMKFQNKKLKEGHSGDYLKKMHVYLVSLLNHAMKFHELKQNVASLVGNFEIESQKRLNYWTLEQFNQFYEALATQQQKLFFKLLFYSGARKGEIRALTWRDINFDDDFIHINKTDYHGEVTAPKTKSAIRDIYLPTHMMYDIKDYLIWYKENNIYKDDYVLFGTFYKAYSESTIDRWFTNALKVLDEQLPNGQNFPRIVIHELRHSHASMLVNLGASVMIIAQRLGHSDTTEVYNRYGHLYPSTQKEIVKYL | failed
2 | MSYSNILVAVAVTPESQQLLAKAVSIARPVKGHISLITLASDPEMYNQLAAPMLEDLRNVMQEETQSFLDKLIQDAGYPVDKTFIAYGELSEHILEVCRKHHFDLVICGNHNHSFFSRASCSAKRVITSSEVDVLLVPLTGD | failed
3 | MSYVDISYYKDNFKGDILNDDTLENRLERASDQIDKLTYNRIIGVEFKNLSPFQQDKIKKAVCLQAEFIEQYGEFINMPLSGFSAGSTSVSFNGSIVNGITTTQEVINYIYQTGLNSRRILEHHHHHH | failed
4 | MSYVPPHKRLENVALRASSVPPSLLKKHNKNVGSTNTKIIYANGYISRWFLVGSDPEDSNFQLVPGSSEWRKDAEEKSLVILAKSDLGKLENPWLWVTEKVEDDIIMGFDRAKKTLLGYGGSEDVKLRLIARFGTLRDGPLTKSTLEKLKKMFRTNVPKSYVENVGYRAVHKMGFCVEETKELYHVKVSDNTRPDVTISCKCMAELNALRHLNLDVSCLDQDLDMRLMVDSKRTLTNLSENEITNLKELTDSAVVDPTVKGGLKWPLGKSSCADRYIVCGVWHTVTTTYINQTMRLQIREADRYDFRTGVGGTSSEVNFKLKALSTILLKEEDVERKCVSDMLKDCLKAVWEYFLKEV | failed
5 | MTAAEPYTVELAADVHAYVQPDGGWCLNNAGFVSDGTTTLLVDTAATERRTRALSAAIAAAGVPAPRFVVNTHHHGDHTYGNSHFAPTATIVSHAECRRETLANGRQLHLLWPENDFGDIRIQAADLTYTGHTTVHVGAVDAEVIHPGVAHTVSDSVVWLPHRRVLFTGDLVFEGGTPFILMGSLSGSLRALDVLRQLGAETVVPGHGPVTDPSAFDRTERYLRFVADIAHKSHAAGRTPLEAARETDLGEFAALPESERFVANLHRAYAELDGAPEGAPLDVPAAVRDIAAMNGGRMVACHA | failed
6 | MTAAQDGRIITFYSYKGGTGRTMALANTAWILAANGKRVLAVDWDLEAPGLDRFFRPFLDPHALAATSGIIDIINEYAWAATSGSQRSGAWHQEYAHVEQHAVSLTPERHGLRFAKGGSLDFLSAGRQDRSYSATVSSFEWDNFYERLGGGLFLDALRDDMKASYEYVLIDSRTGLSDNADICTIQMPDMLVDCFTLSDQSLDGAAAVARSVEDGYRKRKIRVLPVPMRIDEGEKEKVDAGRALARLKFDGLPKGLGGEDLSPEELSQYWGAVEIPYRPYYAYEETLATVGDESGIANSLLSAFERLTNVISDGEVASLPPVPEPVRLRCLDAFTRRRPLTTAADVVVAYAAENRMWADWIEAVLKHSGCNVTLYDVSAGPVERPDAATRALVLLSNAFQKSRYGEDVWRAFTGGDPDGAHPALVPLRVDEVRLPDSYLAHEPVDLHRLEEAQCVAGLLSALELPAQPTDGAPAAPRFPGSTPATWNAPQRNQTFTGRNVILTQVREQLRSGMSVVLPQPQALTGLGGVGKTQVALEYVHRFMADYDLVWWTSAESVDNVVASLAELGARIGAPGGEDMALVSRETVQMLARGVPTKRWILIFDNADNPEQLTRYFPAGGGGHILVTSRNQAWATQGQSLPVDVFLRQESIEHLSRRAPGLTAHEADRVATAVGDLPLAVEQAAAWLAETATPIEDYLRQLAEQTTDVLDLNQPADYPETVAATWNISIARLKDRSPASVRLLQLCAFLAPEPISSHLLYSKEMIDELRKVDPTLQESLLLGRVIREIARFALAKVDQVSNSIQVHRLVQAVIRSQLTQEEQRHARHVVHTVLAGARPDGDEPIDDPETWPRFGVIWPHLSASDVRNCTENEPRRLLIDRVRYLWKRGDFPAAQQLAEDLLGHWKPLLGEEDVQYLYLRCQLANVMRSQGRYVESRAINTELLEQQRRVLGAAHPHTYVTMSSLASDLAALGEYTLAVELAREAHDGFSQIFHESHRRTLSAANNLALALRMVGRYGDARSLDQDTYDRRMEVLGPDHPYTLASAGRLGRDLREVGRYEDSVSLLSRAYDAHKRILGKGFPGTLSCAKSLAVSLRRTGRLEDARRLTTATRAQYRTQYDAHTPDSLACDLNMAADLYAADEREAAREVAKEALTEYMKVPGEEHPYTQAALNNLGIFHWGCGDAVEAEAVFRQVLPRMSDVLGDRHPHTLFTEANFANVLADQGRLEEAWALEKRAMDTLRTVLGPQHPETLAVVSNCALTLGALGRTDEARRLREETLAELNRQGRQLGENNGIIQLTGHERRIYRDLEPLAV | failed
7 | MTAAQFAALSPLVVLAIAAVAAMMLVPLARLQIVQASAAAGLAIAAALVLLRIGAPAAPMGALFTDDGPARFGIVFACLVSLGALVFLRTGHPAKEAPSLLVLVAIGAATLAGAGHAATLFLGIEILSLSLIALFAFRLTRQGLEAAYKFLVMSGLASSALLLGIALIFAETGALDFAGWGGRGALTAFGTALLLAGLAFKFSLVPFHMWTPDAFEAAPASAATLAGVVSKSAVAIVILRLALTAHLPEPVWSQGLAALGGASVLIGNLLALRQPQLPRMLGYSTIAHSGYIALIIASGTPHAGEAVLFYLAIYAPAMLGALCVSAALGRAPTLPDLHGLMKRRPLEAIALSLSLLSLAGLPAAGGFIAKLFLLRVLIDGSLWVLVGIVVAGSSLGFFYYAKFFTAPFVGHTHDESEPLPQLDRGLLIVCIALIVIFGVAPAGLMNVVAATMAP | failed
8 | MTAEETVNVKEVEIIKLILDFLNSKKLHISMLALEKESGVINGLFSDDMLFLRQLILDGQWDEVLQFIQPLECMEKFDKKRFRYIILKQKFLEALCVNNAMSAEDEPQHLEFTMQEAVQCLHALEEYCPSKDDYSKLCLLLTLPRLTNHAEFKDWNPSTARVHCFEEVCVMVAEFIPADRKLSEAGFKASNNRLFQLVMKGLLYECCVEFCQSKATGEEITESEVLLGIDLLCGNGCDDLDLSLLSWLQNLPSSVFSCAFEQKMLNIHVDKLLKPTKAAYADLLTPLISKLSPYPSSPMRRPQSADAYMTRSLNPALDGLTCGLTSHDKRISDLGNKTSPMSHSFANFHYPGVQNLSRSLLLENTECHSIYEESPERSDTPVETQQPVSIEPMCQGSGLEKEPANGAQNPVPAKQQEKNELRDSTEQFQEYYRQRLRYQQHLEQKEQQRQIYQQMLLEGGVNQEDGPDQQQNLTEQFLNRSIQKLGELNIGMDSLGNEVPVLNQQCLGSKNSGSNNSSVTSFSSPPQDSSQRLTHDTSNIHTSTPRNPGSTNHIPFLEESPCGSQNSSEHSVVKPSPGDSSGSLSRSKGEEDDKSKKQFVCINTLEDTQAVRAVAFHPSGSLYAVGSNSKTLRVCAYPEKLDTSAHDGPKQPVVRFKRNKHHKGSIYCVAWSPCGQLLATGSNDKYVKVLPFNAETCNATGPDLEFSMHDGTIRDLAFMEGPESGGAILISAGAGDCNIYTTDCQRGQGLHALSGHTGHILALYTWSGWMIASGSQDKTVRFWDLRVPSCVRVVGTTFHGTGSAVASVAVDPSGRLLATGQEDSSCMLYDIRGGRMVQSYHPHSSDVRSVRFSPGAHYLLTGSYDMKIKVTDLQGDLTKQLPLMVVGEHKDKVIQCRWHTQDLSFLSSSADRTVTLWTYSG | failed
9 | MTAFILVSGMFTGTHIWQDTAARLTARGAEVHTVALTGLDAPRAAAAPGVDLETHIADVLAVIDSVGAAGDRRIVLVGHDYGIHPAVGAADRRAERVDRIVHLDSGLPRDGVPALAAVPDQSLRERLAGAAGADGVLPPPAHEEWPRWGSTAGVPDAALDRLTALAAPQPLGTLLQPLRLTGAVDPVPTTGVLCTGNGTSIELVQMLVRLGDPALRPLTDPRVSFFELPTGHWPMLSLPAELTDVLLRAAAG | failed
10 | MTAGHGIAALPGTMRVFERGWLSSNNILFFDDDAHGGCALVDSGYLTHAPQTVALARHALQGRPLRRLLNTHLHADHCGGNAALQAAYGCRIRVPAAQIGDVRRWDTDALSYRPTGQQCERFTLPEGDTAEAGLADGMTARLGGLDWQVISAPGHDPHAVILYSPDTRVLLSADALWERGFGVIFPELEGESGFAEQEAILACIARLGARVVVPGHGRPFTEVDAAIDAARGRLAYLRADPERNALHALRVLVKFKLLEQQAMTREALAAWFAQASLIPRLQARFFAATPLPALLEATVAALVKAGAAAVEATRIVNRG | failed
11 | MTALAVTLKNWFFTRNSMILNANILLFIILFNTLPFEPQVVTGISILVFVAILWLTEAIHVSITALLIPMLAVFLGVFNTQAALNNFSNSIIFLFLGGFALAAALHKQKLDQALADKVLLIARGRMSVAVFMLFGVSAGLSMWISNTATAAMMLPLVLGVMTKLDAKKNHNTFLFVLLGIAYSASIGGIATLVGSPPNAIAAAEVGLNFTEWMKLGLPISLILMPIAILVLYTMTKPDLSHKFELDHKPVEWTNGKMVTLAIFLLTVTLWIFSKPINTMLGGFAKFDTLVAIGAILLLGASRAVEWKDIEKTTDWGVLILFGGGICLSNVLKATGTSVFLAHSLTGFLEQAGVLLTILSVVAFVVFLTEFASNTASAALLVPVFATIAEALGLSPVILSALIAVAASCAFMLPVATPPNAIVFGTGHIKQKEMMRIGFVLNIACIGALTLFAWLFW | failed
12 | MTAMSPEQSRAIAKKLAFWATLACLLAVVVIMLGAWTRLVHAGLGCPDWPGCYGFLTVPQDETRIAIANARFPETPVDVSKGWPEMIHRYAAGTLGLLVFGLAIASVRKRRAGLPVKLPLFIAGFIVLQAAFGMWTVTLKLWPQVVALHLLGGFTTLSLLLLLTLRLRRRARESEAPRPAMAASLARLRPWLYGGLLLVIAQIALGAWTAANYAAVACTDLPTCQGQWWPEGMDFQHGFDITQHVGPNYLGGQLTSDGRVAIHVSHRLGAVLVLGYLAILLGLLWRQRAQSGLDRAIALVGGALVLQFCLGLTNVWLHIPLIIAVAHNAMGAGLLLSMVHLIWRHHQLALPALSPAPHTTTINREVTA | failed
13 | MTARARSALLDAEHIVGYTTYVELLPDEITEGADDIYNTPMCGEVSRTEEAIDRALAGNDVAIIGSGDPNVYALAGLALEIIESKGATATMLDFDVVPGVP | failed
14 | MTASPIVVFDLDGTLIDTAPDLINALNFILVREGMPAVPMAVARNMIGQGARRLLERGLELDGRVIAQDDVNRLTVDFIDYYAAHIADESRPFEGLEATLDELSESGYRFAVCTNKLEWLSKLLLDRLGLSPRFAAICGADTFGVAKPDPAILRETVAKAGGDLSAAIMVGDAGPDVGVARRAGVPVIGVEFGYTEVPIAELQPDLLVGHMRELPNAVGRLLPR | not failed
15 | MTATWEKKEGNEGLLTVTVPAEKVNKALDQAFKKVVKQINVPGFRKGKVPRPIFEQRFGVEALYQDAIDILLPDAYGEAIDETDIKPVAQPEVSVTQIEKGKDFIFEATVTVEPEVKLGDYKGLEIEKQETELSDDELQEAIDHSLGHLAEMVVKEDGVVENGDTVNIDFSGSVDGEEFEGGQAEGYDLEIGSGSFIPGFEEQLEGMKVDEEKDVVVTFPEEYHAEELAGKEATFKTKVNEIKFKEVPELTDEIANELDAEANTVDEYKENLRKRLAEQKATDAENVEKEEAITKATDNTTIDIPEAMVNTELDRMVSEFAQRIQQQGLDLQTYFQISGQDETQLREQMKDDAEQRVKTNLTLTAIAEAEKIEATDEDIDKELEKMSKQFNISVEDIKNTLGNTDIIKNDVRIQKVIDLLRDNAKFVEGTKED | failed
16 | MTAVSSPACAIAGKPPMLSMRDIWLRLHRWLALCLGLFLALLGLSGSLLELKGPILRWEVGAQMLQLAPGEHGTLLQQDAWIRAASDAYPQLHKVFGAAPPRQGFLESDNVIVFGALKERPGTGIAMIDPYSGEPRGFFVFEDLWLAKLVALHRSLLLPPAWGSNLVLLYGLALLGSLGSGLYLWWPGRRSWWKAASLRPGSRGNRRLREWHNVAAAWLCLPLLLIAGSGAWLARPDLFTWPGAQPMAIKPLFSAAHGHLLLGTPGAWLAFLCGISLPLLYLTGLLLWWRKRAARRAVQSFKETSHDTP | failed

Reference: a protein production outcome set (Wang et al. 2014)
